Measurements from paper PMC5309953, “IRAV (FLJ11286), an Interferon-Stimulated Gene with Antiviral Activity against Dengue Virus, Interacts with MOV10”.

B1: ssRNA 20-mer (ssRNA)
RNA: AGUUGUUAGUCUACGUGGAC
B2: ssDNA 20-mer (ssDNA)
DNA: AGTTGTTAGTCTACGTGGAC

Target: IRAV (FLJ11286) (UniProt Q9NUL5 1-269)
Assay: fluorescence polarization; FP: oligos in 100 mM KCl, 20 mM HEPES pH 7.4 (heated to 85 C, slow cooled); protein purified in 200 mM NaCl, 20 mM HEPES pH 7.4; assay temperature not stated
Settings: protein: recombinant; tags: N-terminal His-MBP; label: 3'-FAM; single strand

Chain of IRAV (FLJ11286) (Q9NUL5 1-269): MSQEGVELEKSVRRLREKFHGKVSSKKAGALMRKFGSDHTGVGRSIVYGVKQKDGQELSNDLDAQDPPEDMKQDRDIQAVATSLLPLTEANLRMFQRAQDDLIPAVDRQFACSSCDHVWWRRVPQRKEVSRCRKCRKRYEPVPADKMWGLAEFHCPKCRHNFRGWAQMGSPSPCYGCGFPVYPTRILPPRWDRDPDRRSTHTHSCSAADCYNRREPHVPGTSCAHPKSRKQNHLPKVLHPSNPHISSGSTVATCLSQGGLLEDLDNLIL

| Binder | binding result |
| --- | --- |
| B1 | binds |
| B2 | binds |
